The text below walks through data of patent US20180346592A1 (MOGAM INSTITUTE FOR BIOMEDICAL RESEARCH, published 2018).

Substitutions are numbered along the chain they refer to.

First the molecules themselves.
B1: clone GS011 (scFv, V domains shown)
VH: EVQLLESGGGLVQPGGSLRLSCAASGFTFSNYAMSWVRQAPGKGLEWVSGISPGGSSIYYADSVKGRFTISRDNSKNTLYLQMNSLRAEDTAVYYCARYAVYFLRSHGSYDYGMDVWGQGTLVTVSS
VL: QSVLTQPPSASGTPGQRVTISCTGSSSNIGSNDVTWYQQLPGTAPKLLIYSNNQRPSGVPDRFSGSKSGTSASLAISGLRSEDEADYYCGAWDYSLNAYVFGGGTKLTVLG
notes: scFv library clone tested as culture supernatant
B2: clone GS013 (scFv, V domains shown)
VH: EVQLLESGGGLVQPGGSLRLSCAASGFTFSNYAMSWVRQAPGKGLEWVSSISSGGGSTYYADSVKGRFTISRDNSKNTLYLQMNSLRAEDTAVYYCARKKSQFDYWGQGTLVTVSS
VL: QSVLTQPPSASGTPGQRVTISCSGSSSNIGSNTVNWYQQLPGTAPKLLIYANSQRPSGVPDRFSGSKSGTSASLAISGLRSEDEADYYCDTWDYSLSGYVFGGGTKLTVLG
notes: as for B1
B3: clone GS009 (scFv, V domains shown)
VH: EVQLLESGGGLVQPGGSLRLSCAASGFTFSNYSMSWVRLAPGKGLEWVSVISPSGGNTYYADSVKGRFTISRDNSKNTLYLQMNSLRAEHTAVYYCARYRVKQMLNQRSYSNAMDVWGQGTLVTVSS
VL: QSVLTQPPSASGTPGQRVTISCTGSSSNIGNNYVSWYQQLPGTAPKLLIYDDSQRPSGVPDRFSGSKSGTSASLAISGLRSEDEADYYCGSWDASLSGYVFGGGTKLTVLG
notes: as for B1
B4: clone GS001 (scFv, V domains shown)
VH: EVQLLESGGGLVQPGGSLRLSCAASGFTFSSYSMSWVRQAPGKGLEWVSGISPSGGNKYYADSVKGRFTISRDNSKNTLYLQMNSLRAEDTAVYYCARALLGCKSAYCYYAMDVWGQGTLVTVSS
VL: B3 VL with N31S, Y33A, S35N, D51A, Q54K, A94S
notes: as for B1
B5: clone GS005 (scFv, V domains shown)
VH: EVQLLESGGGLVQPGGSLRLSCAASGFTFSNYAMSWVRQAPGKGLEWVSVISPDSSSKYYADSVKGRFTISRDNSKNTLYLQMNSLRAEDTAVYYCARAAVRRYGPSPYYYYAMDVWGQGTLVTVSS
VL: B3 VL with S35T, D51A, Q54H, G90A, S91T, A94Y
notes: as for B1
B6: clone GS008 (scFv, V domains shown)
VH: EVQLLESGGGLVQPGGSLRLSCAASGFTFSNYAMSWVRQAPGKGLEWVSVISPDNGSTYYADSVKGRFTISRDNSKNTLYLQMNSLRAEDTAVYYCARARVHCRRDQCYSYGMDVWGQGTLVTVSS
VL: B3 VL with N31S, Y33N, S35T, D51A, D52N, S91A, A94S, S97N
notes: as for B1
B7: clone GS017 (scFv, V domains shown)
VH: EVQLLESGGGLVQPGGSLRLSCAASGFTFSGYAMSWVRQAPGKGLEWVSGISPGDGSTYYADSVKGRFTISRDNSKNTLYLQMNSLRAEDTAVYYCARVARMCQGWRCSYADGMDVWGQGTLVTVSS
VL: B3 VL with Y33S, S35Y, D51S, Q54H, S91T, A94S
notes: as for B1
B8: clone GS007 (scFv, V domains shown)
VH: EVQLLESGGGLVQPGGSLRLSCAASGFTFSNYSMSWVRQAPGKGLEWVSVISHDGRSKYYADSVKGRFAISRDNSKNTLYLQMNSLRAEDTAVYYCAKFRVWKRTNAHSYANAMDVWGQGTLVTVSS
VL: B3 VL with V18A, N31S, Y33S, D51A, D52N, Q54N, S91T, G98A
notes: as for B1
B9: clone GX253 (scFv, V domains shown)
VH: EVQLVESGGGLVKPGGSLRLSCAASGFTFSDYYMSWIRQAPGKGLEWVSYISSSGTTIYYADSVKGRFTISRDNAKKSLYLQMNSLRAEDTAVYYCARVRDSSGFWGRGTLVTVSS
VL: QSVLTQPPSVSAAPGQKVTISCSGSSSNIGNNYVSWYQQLPGTAPKLLIYDNNKRPSGIPDRFSGSKSGTSATLGITGLQTGDEADYYCGTWDSSLSAWVVGGGTKLTVLG
notes: as for B1
B10: clone GX118 (scFv, V domains shown)
VH: QLQLQESGPGLVKPSETLSLTCTVSGGSISSSSYYWGWIRQPPGKGLEWIGSIYYSGSTYYNPSLKSRVTISVDTSKNQFSLKLSSVTAADTAVYYCARLRSFADNYVWGSYASYYFDYWGRGTLVTVSS
VL: B9 VL with L4V, K17R, Y33F, Y37H, S94N, S97G, A98T, W99G, V101F
notes: as for B1
B11: clone GX248 (scFv, V domains shown)
VH: QMQLVQSGAEVKKPGASVKVSCKASGGTFSSYAISWVRQAPGQGLEWMGGIIPIFGTANYAQKFQGRVTITADESTSTAYMELSSLRSEDTAVYYCARVRGTGPRGGTFDYWGQGTLVTVSS
VL: B9 VL with V101F
notes: as for B1
B12: clone GX225 (scFv, V domains shown)
VH: QVQLVQSGAEVKKPGASVKVSCKASGYTFTSYYMHWVRQAPGQGLEWMGIINPSGGSTSYAQKFQGRVTMTRDTSTSTVYMELSSLRSEDTAVYYCARESGPSGGMDVWGQGTTVTVSS
VL: SYELTQPPSVSVSPGQTARITCSGDALPKQYAYWYQQKPGQAPVLVIYKDSERPSGIPERFSGSSSGTTVTLTISGVQAEDEADYYCSSYTSSSTRVVFGGGTKLTVLG
notes: as for B1
B13: clone GX099 (scFv, V domains shown)
VH: EVQLVESGAEVKKPGASVKVSCKASGYTFTSYYMHWVRQAPGQGLEWMGIINPSGGSTSYAQKFQGRVTMTRDTSTSTVYMELSSLRSEDTAVYYCARYSSSPAKIDYWGQGTLVTVSS
VL: QSVLTQPPSVSAAPGEKVIISCSGSSSNIGKYYVSWYQQLPGTAPKLLIYDNNKRPSGIPDRFSGSKSGTSATLGISGLQTGDEADYYCGTWDSSLNLVFGTGTKVTVLG
notes: as for B1
B14: clone GX207 (scFv, V domains shown)
VH: EVQLVQSGAEVKKPGASVKVSCKASGYTFTSYGISWVRQAPGQGLEWMGWISAYNGNTNYAQKLQGRVTMTTDTSTSTAYMELRSLRSDDTAVYYCAREGIAAAGYYYGMDVWGQGTTVTVSS
VL: QSALTQPPSVSGSPGQSVTISCTGTSSDVGGYNRVSWYQQPPGTAPKLMIYEVSNRPSGVPDRFSGSKSGNTASLTISGLQAEDEADYYCSSYTSSTTYVFGTGTKVTVLG
notes: as for B1
B15: clone GX090 (scFv, V domains shown)
VH: QVQLVQSGAEVKKPGASVKVSCKASGYTFTSYGISWVRQAPGQGLEWMGWISAYNGNTNYAQKLQGRVTMTTDTSTSTAYMELRSLRSDDTAVYYCARGSSFSGFDPWGQGTLVTVSS
VL: QSVLTQPPSLSAAPGQKVTISCSGSSSNIGKNHVSWYQQFPGTAPKFLIYDNHRRPSGIPDRFSGSKSGTSATLDITGLQTGDEATYYCGTWDSSLSAVVFGGGTKLTVLG
notes: as for B1
B16: clone GX206 (scFv, V domains shown)
VH: QLQLQESGPGLVKPSETLSLTCTVSGGSISSSSYYWGWIRQPPGKGLEWIGSIYYSGSTYYNPSLKSRVTISVDTSKNQFSLKLSSVTAADTAVYYCARLGDYGGNGYYFDYWGQGTLVTVSS
VL: QSVLTQPPSVSAASGQKVTVSCSGSSSNIGKNGVSWHQQLPGTAPKLLIYENNRRPSEIPDRFSGSKSGTSATLAITGLQTGDEADYYCGTWDSSLNAGVFGTGTKVTVLG
notes: as for B1
B17: clone GX234 (scFv, V domains shown)
VH: QVQLVQSGAEVKKPGASVKVSCKASGYTFTSYGISWVRQAPGQGLEWMGWISAYNGNTNYAQKLQGRVTMTTDTSTSTAYMELRSLRSDDTAVYYCARVGLGDFWSGDYYYYYYGMDVWGQGTTVTVSS
VL: SSELTQDPAVSVALGQTVRITCQGDSLRSSYASWYHQKPGQAPVLVMYGKNNRPSGIPDRFSGSSSGNTASLTITGAQAEDEADYYCHSRDSTGSHPNWVFGGGTKLTVLG
notes: as for B1
B18: clone GX119 (scFv, V domains shown)
VH: EVQLVESGGGVVQPGRSLRLSCAASGFTFSSYGMHWVRQAPGKGLEWVAVIWYDGSNKYYADSVKGRFTISRDNSKNTLYLQMNSLRAEDTAVYYCARDRSWNYYGMDVWGQGTTVTVSS
VL: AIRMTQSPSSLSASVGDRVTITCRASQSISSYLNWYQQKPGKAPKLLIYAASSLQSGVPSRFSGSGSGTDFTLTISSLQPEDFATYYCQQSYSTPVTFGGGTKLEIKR
notes: as for B1

In one assay the target is T1, GPC3 on the surface of hepatic cancer cell lines (SK-Hep1-GPC3 transfectant, HepG2, Huh7, Hep3B, SNU398) (human, UniProt P51654 25-554).
T1 construct: Species is not restated for the cells (hepatic cancer cell lines, or SK-Hep1 transfected with pCMV/GPC3); also called glypican 3
The assay can be described thus: FACS, HepG2 cells, 1 ug antibody; upper right panel (Synthetic library).
Take B1: the “Mean, FL2-H” value came out at 6.5.
Still for that read-out and setting: the figure for B2 is 6.07; for B3 it is 8.12; for B4 it is 8.76.
For the molecule B5, the “Mean, FL2-H” value is 11.
Take B6: the “Mean, FL2-H” value amounted to 8.85.
The same measure, in the same setting: the figure for B7 is 12.2; for B8 it is 11.3.

For the next assay, the target named is T1, GPC3 on the surface of hepatic cancer …. The assay can be described thus: FACS, SK-Hep1-GPC3 cells, 1 ug antibody; lower right panel. On the procedure:
(§1) After detaching SK-Hep1-GPC3 cells by adding a TrypLE Express solution thereto, the detached SK-Hep1-GPC3 cells were put into a 50 mL tube and centrifuged at room temperature and 2000 rpm for 3 minutes to remove a culture medium, followed by washing with PBS once. The resultant was suspended using a FACS buffer, transferred to a round bottom tube, and centrifuged at room temperature and 2000 rpm for 3 minutes. A supernatant was removed, and the resultant was suitably dissolved using the FACS buffer so as to have a concentration of 4×10⁵ ea/mL. Then, a candidate antibody (1 μg) was added thereto at 4° C., and in an […] control group, a human IgG (1m, Sigma) was added instead of the candidate antibody. After 1 hour, the resultant was washed with the FACS buffer two times, a goat anti-human IgG antibody and FITC conjugated were added thereto at an amount of 1 μL per sample and bound thereto at 4° C. for 30 minutes. After collecting cells by centrifugation at 2000 rpm for 3 minutes, the cells were re-suspended by adding a fixation buffer (500 μL), and measured using a FACS calibur (FIG. 5).
(A flow cytometer gives signals particle by particle.)
Turning to B9, the “Mean, FL2-H” value came out at 13.7.
Regarding B10, the “Mean, FL2-H” value was found to be 5.95.
With B11, the “Mean, FL2-H” value turned out to be 13.3.
B12: the “Mean, FL2-H” value was determined as 37.8.
Turning to B13, the “Mean, FL2-H” value was found to be 40.1.
Turning to B14, the “Mean, FL2-H” value is 9.91.
Consider B15, for which the “Mean, FL2-H” value stood at 10.2.
For the molecule B16, the “Mean, FL2-H” value was determined as 14.9.
For the molecule B17, the “Mean, FL2-H” value worked out at 62.9.
Consider B18, for which the “Mean, FL2-H” value was determined as 13.3.

For the next assay the target is unchanged. Nature of the assay: FACS, SK-Hep1-GPC3 #9 cells, 1 ug antibody; upper right panel. On the procedure: as §1
Consider B1, for which the “Mean, FL2-H” value was found to be 22.9.
With B2, the “Mean, FL2-H” value came to 7.43.
On the same count and under the same terms, for B3 the value was 12.3; for B4, 5.32; for B5, 4.98.
In the case of B6, the “Mean, FL2-H” value amounted to 4.89.
Turning to B7, the “Mean, FL2-H” value was 27.5.
Still for that read-out and setting: the figure for B8 is 3.94.

Another assay has the same target. The assay can be described thus: FACS, HepG2 cells, 1 ug antibody; lower right panel.
Regarding B9, the “Mean, FL2-H” value amounted to 6.12.
For B11, the “Mean, FL2-H” value came out at 5.71.
As to B12, the “Mean, FL2-H” value stood at 9.81.
Consider B13, for which the “Mean, FL2-H” value stood at 13.2.
Take B14: the “Mean, FL2-H” value is 5.
The same measure, in the same setting: for B15 the value was 3.49; for B16, 5.08; for B17, 12.6.
Regarding B18, the “Mean, FL2-H” value stood at 5.62.
